Common to all, as to assay: SPR, ratio of KD to KD of WT
Background: In SPR one partner is held on a chip, and binding of the other changes the refractive index at the surface.

In test [1] the target is T1, FVII(a) variant R392A (human, UniProt P08709 61-466).
T1 construct: hFVII alanine variant in cell culture supernatant
T1 sequence: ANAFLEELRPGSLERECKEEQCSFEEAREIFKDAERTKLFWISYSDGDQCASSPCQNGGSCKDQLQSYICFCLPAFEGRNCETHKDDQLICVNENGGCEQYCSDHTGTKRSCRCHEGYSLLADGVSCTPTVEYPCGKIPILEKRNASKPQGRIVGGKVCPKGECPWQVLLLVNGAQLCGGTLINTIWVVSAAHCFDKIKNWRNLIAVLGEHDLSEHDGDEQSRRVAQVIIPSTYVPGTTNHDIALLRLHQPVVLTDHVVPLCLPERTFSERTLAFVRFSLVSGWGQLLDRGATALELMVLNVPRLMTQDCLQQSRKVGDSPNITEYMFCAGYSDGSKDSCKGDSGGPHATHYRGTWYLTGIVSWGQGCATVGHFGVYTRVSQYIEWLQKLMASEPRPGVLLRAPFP

The target in test [2] is T2, FVII(a) variant T130A (human, UniProt P08709 61-466).
T2 construct: hFVII alanine variant in cell culture supernatant
T2 sequence: T1 sequence with T130A, A392R

Test [3] addresses T3, FVII(a) variant S119A (human, UniProt P08709 61-466).
T3 construct: hFVII alanine variant in cell culture supernatant
T3 sequence: T1 sequence with S119A, A392R

The target of test [4] is T4, FVII(a) variant G117A (human, UniProt P08709 61-466).
T4 construct: hFVII alanine variant in cell culture supernatant
T4 sequence: T1 sequence with G117A, A392R

For test [5], the target named is T5, FVII(a) variant T185A (human, UniProt P08709 61-466).
T5 construct: hFVII alanine variant in cell culture supernatant
T5 sequence: T1 sequence with T185A, A392R

Numbering of substitutions follows the chain as printed.

B1: mAb0842(OA) (antibody, human IgG4 S228P, kappa)
heavy: QVQLQESGPGLVKPSQTLSLTCTVSGYSISSDSAWSWIRQPPGKGLEWIGYIQYSGSTNYNPSLKSRVTISRDTSKNQFSLKLSSVTAADTAVYYCARSVNYYGNSFAVGYWGQGTLVTVSSASTKGPSVFPLAPCSRSTSESTAALGCLVKDYFPEPVTVSWNSGALTSGVHTFPAVLQSSGLYSLSSVVTVPSSSLGTKTYTCNVDHKPSNTKVDKRVESKYGPPCPPCPAPEFLGGPSVFLFPPKPKDTLMISRTPEVTCVVVDVSQEDPEVQFNWYVDGVEVHNAKTKPREEQFNSTYRVVSVLTVLHQDWLNGKEYKCKVSNKGLPSSIEKTISKAKGQPREPQVYTLPPSQEEMTKNQVSLSCAVKGFYPSDIAVEWESNGQPENNYKTTPPVLDSDGSFFLVSRLTVDKSRWQEGNVFSCSVMHEALHNHYTQKSLSLSLGK
light: EIVLTQSPATLSLSPGERATLSCRASQGISDYLHWYQQKPGEAPRLLIKYTSQPATGIPARFSGSGSGTDFTLTISSLEPEDFAVYYCQNGHSFPLTFGQGTKLEIKRTVAAPSVFIFPPSDEQLKSGTASVVCLLNNFYPREAKVQWKVDNALQSGNSQESVTEQDSKDSTYSLSSTLTLSKADYEKHKVYACEVTHQGLSSPVTKSFNRGEC
chain: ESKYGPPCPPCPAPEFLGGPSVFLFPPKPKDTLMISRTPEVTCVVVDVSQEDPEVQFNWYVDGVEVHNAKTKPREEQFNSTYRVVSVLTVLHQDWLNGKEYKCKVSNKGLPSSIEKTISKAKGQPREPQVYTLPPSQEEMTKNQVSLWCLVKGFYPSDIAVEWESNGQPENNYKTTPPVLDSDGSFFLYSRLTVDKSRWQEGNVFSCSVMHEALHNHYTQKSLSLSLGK
notes: also called monovalent humanized 11F2 antibody; one-armed anti-FVII(a) antibody
For the molecule B1, the “Fold diff (Variant/WT)” value in test [1] stood at 142 fold; in test [2], 105 fold; in test [3] it was 1 fold; in test [4], 1 fold; in test [5], 3.3 fold.

The values above are taken from patent US20220064329A1 (Novo Nordisk, published 2022).
